Measured values taken from publication doi:10.1101/2023.04.25.538313v1.

Substrate: O=c1ccn([C@@H]2O[C@H](CO[P@@](=O)(O)O[P@@](=O)(O)O[C@H]3O[C@H](CO)[C@@H](O)[C@H](O)[C@H]3O)[C@@H](O)[C@H]2O)c(=O)[nH]1
Assay: purified protein
Settings: His-tagged protein in proteoliposomes

B1: CSLD3 (Arabidopsis thaliana) (protein)
chain: MASNNHFMNSRSNLSTNSDAAEAERHQQPVSNSVTFARRTPSGRYVNYSRDDLDSELGSVDLTGYSVHIPPTPDNQPMDPSISQKVEEQYVSNSLFTGGFNSVTRAHLMEKVIDTETSHPQMAGAKGSSCAVPGCDVKVMSDERGQDLLPCECDFKICRDCFMDAVKTGGMCPGCKEPYRNTDLADFADNNKQQRPMLPPPAGGSKMDRRLSLMKSTKSGLMRSQTGDFDHNRWLFETSGTYGFGNAFWTKDGNFGSDKDGNGHGMGPQDLMSRPWRPLTRKLQIPAAVISPYRLLILIRIVVLALFLMWRIKHKNPDAIWLWGMSVVCELWFALSWLLDQLPKLCPINRATDLNVLKEKFETPTPSNPTGKSDLPGLDMFVSTADPEKEPPLVTSNTILSILAADYPVEKLACYVSDDGGALLTFEAMAEAASFANMWVPFCRKHNIEPRNPDSYFSLKRDPYKNKVKADFVKDRRRVKREYDEFKVRINSLPDSIRRRSDAYHAREEIKAMKLQRQNRDEEIVEPVKIPKATWMADGTHWPGTWINSGPDHSRSDHAGIIQVMLKPPSDEPLHGVSEGFLDLTDVDIRLPLLVYVSREKRPGYDHNKKAGAMNALVRASAIMSNGPFILNLDCDHYIYNSQALREGMCFMMDRGGDRLCYVQFPQRFEGIDPSDRYANHNTVFFDVNMRALDGLMGPVYVGTGCLFRRIALYGFDPPRAKEHHPGFCSCCFSRKKKKSRVPEENRSLRMGGDSDDDEEMNLSLVPKKFGNSTFLIDSIPVAEFQGRPLADHPAVQNGRPPGALTIPRELLDASTVAEAIAVISCWYEDKTEWGSRIGWIYGSVTEDVVTGYRMHNRGWKSVYCVTKRDAFRGTAPINLTDRLHQVLRWATGSVEIFFSRNNAFFASPRMKILQRIAYLNVGIYPFTSFFLIVYCFLPALSLFSGQFIVQTLNVTFLVYLLIISITLCLLALLEIKWSGISLEEWWRNEQFWLIGGTSAHLAAVIQGLLKVVAGIEISFTLTSKSGGEDVDDEFADLYIVKWTSLMIPPITIMMVNLIAIAVGFSRTIYSVIPQWSKLIGGVFFSFWVLAHLYPFAKGLMGRRGRTPTIVYVWSGLVAITISLLWVAINPPAGSTQIGGSFTFP
Km: 62 µM
